In US20190300623A1 (POLYTHERICS, published 2019):

Target: T1, recombinant human PSMA (R&D Systems) (human, UniProt Q04609 44-750)
T1 construct: Bought protein used as the Biacore analyte; also called PSMA antigen; PSMA analyte
Assay: SPR (Biacore T200), antibody captured on Protein A chip, recombinant human PSMA as analyte, 25 C

T1 sequence (Q04609 44-750 limits assumed): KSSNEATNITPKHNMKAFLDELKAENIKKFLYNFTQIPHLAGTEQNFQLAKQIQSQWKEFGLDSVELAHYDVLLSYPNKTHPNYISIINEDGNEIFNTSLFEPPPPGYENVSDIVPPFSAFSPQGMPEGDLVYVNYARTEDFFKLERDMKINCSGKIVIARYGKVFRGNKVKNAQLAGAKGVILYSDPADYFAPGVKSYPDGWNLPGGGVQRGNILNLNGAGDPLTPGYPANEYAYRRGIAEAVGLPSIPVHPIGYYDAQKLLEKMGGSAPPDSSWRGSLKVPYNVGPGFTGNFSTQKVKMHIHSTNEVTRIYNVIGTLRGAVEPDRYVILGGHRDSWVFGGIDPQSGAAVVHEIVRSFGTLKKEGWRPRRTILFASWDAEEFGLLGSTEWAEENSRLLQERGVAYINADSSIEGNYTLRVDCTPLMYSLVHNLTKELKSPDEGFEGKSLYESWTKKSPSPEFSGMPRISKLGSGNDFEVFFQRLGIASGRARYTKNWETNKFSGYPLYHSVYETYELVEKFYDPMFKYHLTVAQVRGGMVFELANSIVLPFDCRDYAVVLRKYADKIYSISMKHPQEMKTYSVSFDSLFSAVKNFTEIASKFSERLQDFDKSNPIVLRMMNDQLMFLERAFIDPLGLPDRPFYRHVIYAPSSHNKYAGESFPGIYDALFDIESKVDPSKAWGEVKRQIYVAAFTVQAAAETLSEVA

| Kd [nM] | Binder |
| --- | --- |
| 0.245 | AB-03 (antibody, human IgG1, V domains shown, Variable domains only; Expressed as human IgG1 (G1m3) / kappa (Km3)) VH: EVQLVQSGAEVKKPGASVKVSCKASGYTFTEYTIHWVRQAPGKGLEWIGNINPNNGGTTYNQKFEDRVTITVDKSTSTAYMELSSLRSEDTAVYYCAGGWTFDYWGQGTTVTVSS VL: DIQMTQSPSTLSASVGDRVTITCKASQDVGTAVDWYQQKPGQAPKLLIYWASTRHTGVPDRFSGSGSGTDFTLTISRLQPEDFAVYYCQQFTRYPLTFGQGTKVDIK |

Target: T1, recombinant human PSMA (R&D Systems)
Assay: as above
Remark: another data set of the same source

| Kd [nM] | Binder |
| --- | --- |
| 0.354 | AB-04 (antibody, human IgG1, V domains shown, Variable domains only; Expressed as human IgG1 (G1m3) / kappa (Km3)) VH: EVQLVQSGAEVKKPGASVKVSCKASGYTFTEYTIHWVRQAPGKGLEWIGNINPNNGGTTYNQKFEDRVTITVDKSTSTAYMELSSLRSEDTAVYYCAGAWTMDYWGQGTTVTVSS VL: DIQMTQSPSTLSASVGDRVTITCKASQDVGTAVDWYQQKPGQAPKLLIYWASTRHTGVPDRFSGSGSGTDFTLTISRLQPEDFAVYYCQQFTRYPLTFGQGTKVDIK |
| 0.28 | AB-02 (antibody, human IgG1, V domains shown, Variable domains only; Expressed as human IgG1 (G1m3) / kappa (Km3)) VH: EVQLVQSGAEVKKPGASVKVSCKASGYTFTEYTIHWVRQAPGKGLEWIGNINPNNGGTTYNQKFEDRVTITVDKSTSTAYMELSSLRSEDTAVYYCAAYWLFDYWGQGTTVTVSS VL: DIQMTQSPSTLSASVGDRVTITCKASQDVGTAVDWYQQKPGQAPKLLIYWASTRHTGVPDRFSGSGSGTDFTLTISRLQPEDFAVYYCQQYNSYPLTFGQGTKVDIK |

Target: T1, recombinant human PSMA (R&D Systems)
Assay: as above
Remark: another data set of the same source

| Kd [nM] | Binder |
| --- | --- |
| 0.224 | AB-05 (antibody, human IgG1, V domains shown, Variable domains only; Expressed as human IgG1 (G1m3) / kappa (Km3)) VH: EVQLVQSGAEVKKPGASVKVSCKASGYTFTEYTIHWVRQAPGKGLEWIGNINPNNGGTTYNQKFEDRVTITVDKSTSTAYMELSSLRSEDTAVYYCAAYWLFDYWGQGTTVTVSS VL: DIQMTQSPSTLSASVGDRVTITCKASQDVGTAVDWYQQKPGQAPKLLIYWASTRHTGVPDRFSGSGSGTDFTLTISRLQPEDFAVYYCQQYNAYSLTFGQGTKVDIK |

Target: PSMA on PSMA-positive LNCaP (clone FGC) and C4-2 cells
Assay: cell-based or functional assay

| Binder | IC50 (nM), anti-proliferative effect on C4-2 cells (CellTiter Glo viability) [nM] | IC50 (nM), anti-proliferative effect on LNCaP cells (CellTiter Glo viability) [nM] |
| --- | --- | --- |
| AB-09-mc-val-cit-PAB-MMAE (antibody, IgG1, V domains shown, mc-val-cit-PAB-MMAE (maleimide reagent) conjugated after TCEP reduction; average DAR 3.5 (±0.2); attachment residues not given) VH: QVQLVESGGGVVQPGRSLRLSCAASGFTFSNYVMHWVRQAPGKGLEWVAIIWYDGSNKYYADSVKGRFTISRDNSKNTLYLQMNSLRAEDTAVYYCAGGYNWNYEYHYYGMDVWGQGTTVTVSS VL: DIQMTQSPSSLSASVGDRVTITCRASQGITNYLAWFQQKPGKAPKSLIYAASSLQSGVPSKFSGSGSGTDFSLTISSLQPEDFATYYCQQYNSYPITFGQGTRLEIK | 0.24 | 0.89 |
| AB-08-mc-val-cit-PAB-MMAE (antibody, V domains shown, mc-val-cit-PAB-MMAE (maleimide reagent) conjugated after TCEP reduction; average DAR 3.5 (±0.2); attachment residues not given) VH: QVQLVESGGGVVQPGRSLRLSCAASGFAFSRYGMHWVRQAPGKGLEWVAVIWYDGSNKYYADSVKGRFTISRDNSKNTQYLQMNSLRAEDTAVYYCARGGDFLYYYYYGMDVWGQGTTVTVSS VL: DIQMTQSPSSLSASVGDRVTITCRASQGISNYLAWYQQKTGKVPKFLIYEASTLQSGVPSRFSGGGSGTDFTLTISSLQPEDVATYYCQNYNSAPFTFGPGTKVDIK | 0.31 | 1.03 |
| AB-02-mc-val-cit-PAB-MMAE (antibody, human IgG1, V domains shown, mc-val-cit-PAB-MMAE (maleimide reagent) conjugated after TCEP reduction; average DAR 3.5 (±0.2); attachment residues not given) VH: EVQLVQSGAEVKKPGASVKVSCKASGYTFTEYTIHWVRQAPGKGLEWIGNINPNNGGTTYNQKFEDRVTITVDKSTSTAYMELSSLRSEDTAVYYCAAYWLFDYWGQGTTVTVSS VL: DIQMTQSPSTLSASVGDRVTITCKASQDVGTAVDWYQQKPGQAPKLLIYWASTRHTGVPDRFSGSGSGTDFTLTISRLQPEDFAVYYCQQYNSYPLTFGQGTKVDIK | 0.18 | 0.61 |
| AB-05-mc-val-cit-PAB-MMAE (antibody, human IgG1, V domains shown, mc-val-cit-PAB-MMAE (maleimide reagent) conjugated after TCEP reduction; average DAR 3.5 (±0.2); attachment residues not given) VH: EVQLVQSGAEVKKPGASVKVSCKASGYTFTEYTIHWVRQAPGKGLEWIGNINPNNGGTTYNQKFEDRVTITVDKSTSTAYMELSSLRSEDTAVYYCAAYWLFDYWGQGTTVTVSS VL: DIQMTQSPSTLSASVGDRVTITCKASQDVGTAVDWYQQKPGQAPKLLIYWASTRHTGVPDRFSGSGSGTDFTLTISRLQPEDFAVYYCQQYNAYSLTFGQGTKVDIK | 0.41 | 1.27 |
| AB-04-mc-val-cit-PAB-MMAE (antibody, human IgG1, V domains shown, mc-val-cit-PAB-MMAE (maleimide reagent) conjugated after TCEP reduction; average DAR 3.5 (±0.2); attachment residues not given) VH: EVQLVQSGAEVKKPGASVKVSCKASGYTFTEYTIHWVRQAPGKGLEWIGNINPNNGGTTYNQKFEDRVTITVDKSTSTAYMELSSLRSEDTAVYYCAGAWTMDYWGQGTTVTVSS VL: DIQMTQSPSTLSASVGDRVTITCKASQDVGTAVDWYQQKPGQAPKLLIYWASTRHTGVPDRFSGSGSGTDFTLTISRLQPEDFAVYYCQQFTRYPLTFGQGTKVDIK | 0.21 | 0.67 |
| AB-03-mc-val-cit-PAB-MMAE (antibody, human IgG1, V domains shown, mc-val-cit-PAB-MMAE (maleimide reagent) conjugated after TCEP reduction; average DAR 3.5 (±0.2); attachment residues not given) VH: EVQLVQSGAEVKKPGASVKVSCKASGYTFTEYTIHWVRQAPGKGLEWIGNINPNNGGTTYNQKFEDRVTITVDKSTSTAYMELSSLRSEDTAVYYCAGGWTFDYWGQGTTVTVSS VL: DIQMTQSPSTLSASVGDRVTITCKASQDVGTAVDWYQQKPGQAPKLLIYWASTRHTGVPDRFSGSGSGTDFTLTISRLQPEDFAVYYCQQFTRYPLTFGQGTKVDIK | 0.22 | 0.7 |

Target: T1, recombinant human PSMA (R&D Systems)
Assay: SPR (Biacore T200), relative to AB-01 on the same chip

| Relative KD | Binder |
| --- | --- |
| 1.56 | AB-04 (antibody, human IgG1, V domains shown, Variable domains only; Expressed as human IgG1 (G1m3) / kappa (Km3)) VH: EVQLVQSGAEVKKPGASVKVSCKASGYTFTEYTIHWVRQAPGKGLEWIGNINPNNGGTTYNQKFEDRVTITVDKSTSTAYMELSSLRSEDTAVYYCAGAWTMDYWGQGTTVTVSS VL: DIQMTQSPSTLSASVGDRVTITCKASQDVGTAVDWYQQKPGQAPKLLIYWASTRHTGVPDRFSGSGSGTDFTLTISRLQPEDFAVYYCQQFTRYPLTFGQGTKVDIK |
| 1.98 | AB-02 (antibody, human IgG1, V domains shown, Variable domains only; Expressed as human IgG1 (G1m3) / kappa (Km3)) VH: EVQLVQSGAEVKKPGASVKVSCKASGYTFTEYTIHWVRQAPGKGLEWIGNINPNNGGTTYNQKFEDRVTITVDKSTSTAYMELSSLRSEDTAVYYCAAYWLFDYWGQGTTVTVSS VL: DIQMTQSPSTLSASVGDRVTITCKASQDVGTAVDWYQQKPGQAPKLLIYWASTRHTGVPDRFSGSGSGTDFTLTISRLQPEDFAVYYCQQYNSYPLTFGQGTKVDIK |
